# Experimental data reported in publication PMC3554283 (Diabetes Care, 2013).
# Key:
# [1] = Serum insulin pharmacokinetics after subcutaneous injection; format: in vivo, human; details: 0.15 units/kg s.c., 14 healthy volunteers
# healthy volunteers = assay: Eight-hour euglycemic glucose clamp; format: in vivo, human; details: mean ± SD; 0.15 units/kg s.c.; 14 healthy volunteers; 8-h euglycemic clamp
substance,measurement,setting,value
insulin glulisine,onset (early t50%) of exposure,[1],21 min
same,tmax,[1],1.33 h
same,onset of action (early T50% GIRmax),healthy volunteers,47 ± 19 min
same,time to 50% glucose infused,healthy volunteers,183 ± 34 min
